Test results from article PMC8028696 (Journal of Molecular Biology, 2021).

B1: IgG 15046 (antibody, V domains shown)
VH: EVQLVESGGGLVQPGGSLRLSCAASGFDFGSYAMHWVRQAPGKGLEWVAGIYASGGYTDYADSVKGRFTISADTSKNTAYLQMNSLRAEDTAVYYCARGWSYYWGFDYWGQGTLVTVSS
VL: DIQMTQSPSSLSASVGDRVTITCRASQSVSSAVAWYQQKPGKAPKLLIYSASSLYSGVPSRFSGSRSGTDFTLTISSLQPEDFATYYCQQYDYGLFTFGQGTKVEIK
B2: IgG 15036 (antibody, V domains shown)
VH: EVQLVESGGGLVQPGGSLRLSCAASGFDFTAYDIHWVRQAPGKGLEWVAGISASGGYTAYADSVKGRFTISADTSKNTAYLQMNSLRAEDTAVYYCARDGFHSYALDYWGQGTLVTVSS
VL: DIQMTQSPSSLSASVGDRVTITCRASQSVSSAVAWYQQKPGKAPKLLIYSASSLYSGVPSRFSGSRSGTDFTLTISSLQPEDFATYYCQQWYSLFTFGQGTKVEIK

Target: SARS-CoV-2 RBD (SARS-CoV-2 (P0DTC2 reference)); strain …, UniProt P0DTC2, biotin (site-specific, BirA, on the AviTag))
Assay: BLI

Binder	Kd [nM]
B1	3.7 ± 0.1
B2	2.2 ± 0.2
